Measured values from the supplement of paper PMC9170038.

System: MS2 coat protein
Assay: apparent KD of MS2 coat protein; designed switch direction (-1 OFF switch, 1 ON switch): -1; higher = weaker reporter binding
In short: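 Designed RNA switches were transcribed on Illumina chips by stalled E. coli RNA polymerase and titrated with SNAP-549-labelled MS2 coat protein from 0.7 or 1.5 nM, doubling to 3 µM. Step length ran from 0.8–1.5 h at the lowest concentration to 10–20 min at the highest. The apparent KD is the median over clusters for each design, from curve-fitted normalised cluster fluorescence.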

[1] = Eterna round: R95, input ligand: microRNA oligo, concentration not stated
[2] = input ligand: microRNA oligo, concentration not stated
[3] = Eterna round: R95, input ligand: FMN 200 uM
[4] = Eterna round: R95, input ligand: none

| Sequence | apparent KD of MS2 coat protein (input ligand: FMN 200 uM) [nM] | apparent KD of MS2 coat protein (input ligand: none) [nM] | apparent KD of MS2 coat protein [1] [nM] | apparent KD of MS2 coat protein [2] [nM] | apparent KD of MS2 coat protein [3] [nM] | apparent KD of MS2 coat protein [4] [nM] |
| --- | --- | --- | --- | --- | --- | --- |
| GAAAAGUAAGGAUAUUCACACAGUGAGGAAACUCACUGUGUGGAGAAGGUACAUGAGGAUCACCCAUGUUUCUC [ExDelusion 1 - Jieux - Exclusion 4] (Eterna round: R97, puzzle: Exclusion 4) | 229 | 30.3 |  |  |  |  |
| CCCAUGUCAGGAUAUUAGAUACUGCCGCAAAACAAAGGCAUUGAGAAGGGACAUGAGGAUCACCCAUGUAAAAC [Soraxerila] (Eterna round: R97, puzzle: Exclusion 4) | 112 | 326 |  |  |  |  |
| AACACUGCAGGAUAUACAUGAGGAUCACCCAUGUGAUCCGAUAACUCCCACGGGAGGAGUAGAAGGGUAAAAGG [Eternabot (Original) Solution 6] (Eterna round: R97, puzzle: Exclusion 3) | 170 | 264 |  |  |  |  |
| GUGUACGUAGGAUAUGCUGGAAUCUAGCGAAGCUAGGUUCCACAUGAGGAUCACCCAUGUAGAAGGGCGUACAC [Dot plot directed A v9] (puzzle: Exclusion 2) |  |  | 132 |  |  |  |
| GGGAAGAACCAACAAGCAAACAUGAGGAUCACCCAUGUUAGUGGUUCGAAUGUAAAGAUUAAGAGAGCUCGUCUUAU [AK-miRNA-r3-9] (Eterna round: R97, puzzle: Sensor, turn-off variant 1) | 18 | 20.2 |  |  |  |  |
| UAUAUGUCAGGAUAUUAGUAGUAAAUAAAUAAAAUUAUUACUGAGAAGGGACAUGAGGAUCACCCAUGUUCCUC [JR_Ex4_Sub001] (Eterna round: R97, puzzle: Exclusion 4) | 162 | 22.9 |  |  |  |  |
| ACAUGAGGAUCACCCAUGUUUAUUGGGUACUAUACUAACAGCAAGGAUAUGCAAAUUUUUUUUACGCAGAAGGUGCAGGAACCC [JR_ExcNG3_Sub069] (Eterna round: R96, puzzle: Exclusion NG 3) | 38.3 | 52.8 |  | 33.1 |  |  |
| ACACUACAUGUAGGAUAUGCGUGGCGAAGCUAUGCAGAAGGACAUGAGGAUCACCCAUGUUUUAGCGUCUGCGUACAGAUGCGU [JL ENG1 1.46] (Eterna round: R96, puzzle: Exclusion NG 1) | 44.7 | 19.3 |  | 16.4 |  |  |
| UGUGUAACGGAGGAUAUAGGACUUCAACGAAGACUAGAAGGCCGAACAUGAGGAUCACCCAUGUGGUCCUCCGU [Dicesoqu] (puzzle: Exclusion 6) |  |  | 13.2 |  |  |  |
| CCUCCACAUGAGGAUCACCCAUGUCAGGAUAUAGGAUUGCUAUCAUGAGAGGAUGGCGUUAGAAGGGACAUCAC [Eternabot (L1) Solution 69] (Eterna round: R97, puzzle: Exclusion 1) | 44.5 | 40 |  |  |  |  |
| UAAUGUGCGAGAGGAUAUCGUGUACAAAGUACACGAGAAGGCUUCACAUGAGGAUCACCCAUGUACCGAGGUGAAACACCUUGA [Omei Exc(NG)1 B] (Eterna round: R96, puzzle: Exclusion NG 1) | 950 | 383 |  | 110 |  |  |
| GUGGUACAUGAGGAUCACCCAUGUUAGGAUAUCGCGUGAGGUUUUACUUCCACACACACGAGAAGGGACGUCUU (puzzle: Exclusion 1) |  |  | 41 |  |  |  |
| AAAUCGCAAGGAUAUCGUCAGUCUGACAUGAGGAUCACCCAUGUUAUCUUGGUAUCAGAGCGAGAAGGUGCAAAGU [Erbied] (puzzle: Exclusion 5) |  |  | 12.5 |  |  |  |
| UAUUAACAAGCUUGAUCCCACAUGAGGAUCACCCAUGUGCUCGUCUUAUAAGGUACUGUGACGAAAGUCACGGUACC [Sensor 3, v1 - 86] (puzzle: Sensor v3, turn-off variant 1) |  |  | 206 |  | 89.9 | 91.2 |
| AGAUUGCGGCAAGGAUAUCUUUGUCAACUUAAAACAUGAGGAUCACCCAUGUGCAUCUUCGUGUGAGAGAAGGUGCGGCGAUCC [Raesredi] (Eterna round: R96, puzzle: Exclusion NG 2) | 1430 | 687 |  | 368 |  |  |
| CGUUCGCGAGGAUAUGCAUUCGAGUCCAUUACGUGUCUGGGACUUGAGGAUCACCCAAGUAGAAGGCGCCUCAC [salish99_ex2_r4_647] (Eterna round: R97, puzzle: Exclusion 2) | 131 | 153 |  |  |  |  |
| GCUAGAGCAGGAUAUUUAGAUCCUCACAUGAGGAUCACCCAUGUGGCCGAAAGGCUAAGAAGAGAAGGGCUCUAGC [Omei Ex5 E22] (Eterna round: R97, puzzle: Exclusion 5) | 199 | 789 |  |  |  |  |

| Sequence | apparent KD of MS2 coat protein (input ligand: FMN 200 uM) [nM] | apparent KD of MS2 coat protein (input ligand: none) [nM] | apparent KD of MS2 coat protein [1] [nM] | apparent KD of MS2 coat protein [2] [nM] | apparent KD of MS2 coat protein [3] [nM] | apparent KD of MS2 coat protein [4] [nM] |
| --- | --- | --- | --- | --- | --- | --- |
| CCUCCCUGAGGAUAUCCACCCUCAUACAUGAGGAUCACCCAUGUUCAUCCGUGGGUACCCGGAGAAGGCAGAUCUC [Megrez-b] (Eterna round: R97, puzzle: Exclusion 5) | 81 | 85.9 |  |  |  |  |
| CGGGAGGGACAAGCUGUUUGCACGUCUGGUAGUGAUGCAACAUGAGGAUCACCCAUGUAUAGGGUGUGAGAGGAUGG [JR_SV3TOV2_Sub050] (puzzle: Sensor v3, turn-off variant 2) |  |  | 89.6 |  | 47.1 | 107 |
| AAGAAGUGAGGAUAUGCAAAGAAAGAAAGAAAGAAAGAAAAGCAGAAGGCACAUGAGGAUCACCCAUGUAAAGA [Fourth Time] (puzzle: Exclusion 4) |  |  | 16.5 |  | 20.5 | 15.6 |
| UGUCAGAUGGUAGGAUAUCCAUAUCGAGUGACCCUUUCAUAACAUGAGGAUCACCCAUGUCGGUGGGAGAAGGGCUGUAUGGUG [salish99_ExNG02_R04_025] (Eterna round: R96, puzzle: Exclusion NG 2) | 26.8 | 24.6 |  | 19.1 |  |  |
| AUAUUGUGAGGAUAUGAACUUAGUAUCGAAAGAUUCUAAGUUCAGAAGGCACAUGAGGAUCACCCAUGUUUCUC [Long static hairpin v20] (Eterna round: R97, puzzle: Exclusion 4) | 808 | 81.9 |  |  |  |  |
| CACCGUUACUGAGGAUAUGGUACAUGAGGAUCACCCAUGUAAUAAAUGAGAAUUUCGGAUGUAUUCCAGAAGGCAGAAAUCGGC [Ostricism 63 - Jieux - Exclusion NG 2] (Eterna round: R96, puzzle: Exclusion NG 2) | 65.2 | 60.3 |  | 40.5 |  |  |
| AUAAAUCAUGUAGGAUAUGCGUGGAGAAGCUAUGCAGAAGGACAUGAGGAUCACCCAUGUGCUUCCGUCUGAGUACAGACGGAA [Mat - Exclusion NG 1 - Mod of JL - D37] (Eterna round: R96, puzzle: Exclusion NG 1) | 129 | 86.5 |  | 99.4 |  |  |
| GAGUGCCGAGGAUAUACAAAUAUCCGCUAAUUAAUGCGAAAACAUGAGGAUCACCCAUGUAGAAGGCUGCACUC [AK-MS2ROC-r4-exclusion2-3] (Eterna round: R97, puzzle: Exclusion 2) | 13.9 | 9.44 |  |  |  |  |
| AUGGGUCCUCUCGGAGCGACAUGAGGAUCACCCAUGUGUGUUGAGGAUAUCCACUGCUCAGGACGGGAGAAGGCAGUGUACUGU [Ex NG3 #86] (Eterna round: R96, puzzle: Exclusion NG 3) | 55.9 | 48.8 |  | 32.5 |  |  |
| CAGCGGUGAGGAUAUUCAAGGUGGGACAUGAGGAUCACCCAUGUACAUAGCUGUACGACCGGAGAAGGCGUGGCAU [Eternabot (L1) Solution 67] (Eterna round: R97, puzzle: Exclusion 5) | 86.5 | 76.3 |  |  |  |  |
| CAGUACUGAGGAUAUACAUGAGGAUCACCCAUGUCUUCCAGCUAGGAAACUAGCAAAUGUAGAAGGCAGUACUG [Salish 065 m9] (Eterna round: R97, puzzle: Exclusion 3) | 639 | 71.8 |  |  |  |  |
| CAUACUGAAGUUAGGAUAUUCGGCCGAAUACGGAUGGAGAAGGGACAUGAGGAUCACCCAUGUAGAUAGUAAAG [EX-4 Malc #14] (puzzle: Brourd's mod of Exclusion 4) |  |  | 21.7 |  | 26.1 | 27.6 |
| UGUUGUCGCGCAGGAUAUGAGGAUCACCCAUAUAAGGAUAUCGAAAGAGAAGUUCUGAGGAUCACCCAGAAGGGCGGGACAACU [pwkr exNG2 2xF5 2xFMN.32] (Eterna round: R96, puzzle: Exclusion NG 2) | 389 | 58.5 |  | 52.6 |  |  |
| UUGAUUAGAAAGGAUAUCGGAUACUUGAGAGUCCGAGAAGGUUUUACAUGAGGAUCACCCAUGUGGCAUCCUCG [Eternabot (L1) Solution 99] (Eterna round: R97, puzzle: Exclusion 6) | 476 | 805 |  |  |  |  |
| AGGAUGUUAGGAUAUCGGAGAUGCUGGAGGAGGUGGAUUUACGAGAAGGAACAUGAGGAUCACCCAUGUGGAAG [JR_Exclu4_Sub046] (puzzle: Exclusion 4) |  |  | 25.8 |  | 35.1 | 27.2 |
| UGCGUUAGAGGAUAUACGUAGAACUAGGUUCAUGUAAAACUACAUGAGGAUCACCCAUGUAGAAGGCUAGCGCU [Mat - Exclusion 2 - JL Mod - D43] (Eterna round: R97, puzzle: Exclusion 2) | 20.4 | 15.4 |  |  |  |  |
| UUUCGGCGGACCGUGGCUUUUUGCUCGUCUUAUGCUUCGACAUGAGGAUCACCCAUGUGGUGGUGGUCCGUUGUUGU [Grok-var2-12 mod JAL] (puzzle: Sensor v3, turn-off variant 2) |  |  | 20.3 |  | 29.9 | 48.9 |
